This is an account of results in patent publication US20260234738A1.

Test [1] has as its target full-length SARS-COV-2 spike protein (amino acids M1-T1273 of NCBI accession number YP_009724390.1) (SARS-CoV-2) (UniProt P0DTC2). The test is described as follows: cell-based or functional assay.
A further test concerns the target MERS.hFc (mAb2664-L1). The test is described as follows: Luminex beads, supernatant.
The target in a further test is MERS.mFc (mAb2663-L1). Kind of test: Luminex beads, supernatant.
For another test, the target named is Bt-MERS.hFc (mAb2664-L2). Kind of test: Luminex beads, supernatant.
For test [2], the target named is high affinity human FcγR3a 176Val allotype receptor (human) (UniProt P08637). Kind of test: cell-based or functional assay.
Test [3] deals with MOD3-SARS-CoV-2 Spike Protein (RBD)(R319-F541).mmH (SARS-CoV-2). Kind of test: Luminex bead binding, antibody supernatant.
For test [4], the target named is MOD10-SARS-CoV-2 Spike Protein (RBD)(R319-F541).mmH (SARS-CoV-2). The test is described as follows: Luminex bead binding, antibody supernatant.
Test [5] has as its target MOD1-SARS-CoV-2 Spike Protein (RBD)(R319-F541).mmH (SARS-CoV-2). Kind of test: Luminex bead binding, antibody supernatant.
The target of test [6] is MOD8-SARS-CoV-2 Spike Protein (RBD)(R319-F541).mmH (SARS-CoV-2). The test is described as follows: Luminex bead binding, antibody supernatant.
Test [7] addresses MOD5-SARS-CoV-2 Spike Protein (RBD)(R319-F541).mmH (SARS-CoV-2). The test is described as follows: Luminex bead binding, antibody supernatant.
Test [8] concerns the target MOD2-SARS-CoV-2 Spike Protein (RBD)(R319-F541).mmH (SARS-CoV-2). Kind of test: Luminex bead binding, antibody supernatant.
Test [9] has as its target MOD7-SARS-CoV-2 Spike Protein (RBD)(R319-F541).mmH (SARS-CoV-2). Kind of test: Luminex bead binding, antibody supernatant.
In test [10] the target is MOD4-SARS-CoV-2 Spike Protein (RBD)(R319-F541).mmH (SARS-CoV-2). The test is described as follows: Luminex bead binding, antibody supernatant.
For test [11], the target named is MOD9-SARS-CoV-2 Spike Protein (RBD)(R319-F541).mmH (SARS-CoV-2). Kind of test: Luminex bead binding, antibody supernatant.
Test [12] concerns the target MOD13-SARS-CoV-2 Spike Protein (RBD)(R319-F541).mmH (SARS-CoV-2). The test is described as follows: Luminex bead binding, antibody supernatant.
In test [13] the target is MOD12-SARS-CoV-2 Spike Protein (RBD)(R319-F541).mmH (SARS-CoV-2). The test is described as follows: Luminex bead binding, antibody supernatant.
Test [14] concerns the target MOD11-SARS-CoV-2 Spike Protein (RBD)(R319-F541).mmH (SARS-CoV-2). Kind of test: Luminex bead binding, antibody supernatant.
In test [15] the target is MOD15-SARS-CoV-2 Spike Protein (RBD)(R319-F541).mmH (SARS-CoV-2). Kind of test: Luminex bead binding, antibody supernatant.
The target in test [16] is MOD6-SARS-CoV-2 Spike Protein (RBD)(R319-F541).mmH (SARS-CoV-2). The test is described as follows: Luminex bead binding, antibody supernatant.
The target of test [17] is MOD14-SARS-CoV-2 Spike Protein (RBD)(R319-F541).mmH (SARS-CoV-2). The test is described as follows: Luminex bead binding, antibody supernatant.
Test [18] addresses SARS-CoV-2 spike protein, Wuhan-Hu-1 sequence (S-wt), on VSV pseudoparticles (SARS-CoV-2) (UniProt P0DTC2). Kind of test: cell-based or functional assay.
Test [19] concerns the target Bt-SARS-CoV-2 Spike Protein (RBD) (R319-F541).mFc (column 6 of Table 8) (SARS-CoV-2). Kind of test: Luminex beads, supernatant.

Sequence of high affinity human FcγR3a 176Val allotype receptor (human) (P08637 17-254 F176V): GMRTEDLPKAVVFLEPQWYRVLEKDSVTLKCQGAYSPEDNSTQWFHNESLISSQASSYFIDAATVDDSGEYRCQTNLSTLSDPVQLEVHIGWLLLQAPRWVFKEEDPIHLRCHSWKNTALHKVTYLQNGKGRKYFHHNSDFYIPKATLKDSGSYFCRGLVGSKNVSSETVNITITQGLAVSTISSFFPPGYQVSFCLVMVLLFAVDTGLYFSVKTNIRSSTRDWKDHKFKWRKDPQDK

In test [1], IgG1 Control (antibody) yielded an ADCP Max (% ADCP), Jurkat/hCD20/SARS-CoV-2 Spike cells of 10.4%.
As for mAb10933 (antibody), the MFI was 21 MFI in the test with MERS.hFc (mAb2664-L1), 22 MFI in the test with MERS.mFc (mAb2663-L1) and 26 MFI with Bt-MERS.hFc (mAb2664-L2). The substance further came in with an ADCC (Activity (%)) in test [2] of 68.5%. For the same substance, the ADCC Mean RLU in test [2] came out at 9740 RLU.
In the test with MERS.mFc (mAb2663-L1), mAb10934 (antibody) came in with an MFI of 77 MFI. The binding signal (MFI) in test [3] amounted to 25100 MFI; in [4], 30400 MFI; in test [5], 81 MFI; in test [6], 6410 MFI; in test [7], 6650 MFI; in [8], 27700 MFI. Further, the binding signal (MFI) in [9] was found to be 29900 MFI; in test [10], 31700 MFI; in [11] it was 31300 MFI; in [12], 30500 MFI; in test [13] it was 32900 MFI; in [14], 30700 MFI. The binding signal (MFI) in test [15] was 27800 MFI; in test [16], 30800 MFI; in test [17], 28600 MFI. The substance further displayed an ADCC Mean RLU in [2] of 11700 RLU.
The substance mAb10987 (antibody) had a Relative neutralization at 5 µg/ml in test [18] of 100%. In test [2], the ADCC (Activity (%)) is 29.4% and the ADCC Mean RLU was found to be 12000 RLU.
mAb10989 (antibody) returned an MFI in [19] of 16100 MFI. Moreover, the binding signal (MFI) in test [3] came out at 18300 MFI; in test [4] it was 15500 MFI; in [6], 6140 MFI; in test [7], 3370 MFI; in test [8], 16700 MFI; in test [9], 15200 MFI. Besides, the binding signal (MFI) in [10] amounted to 15800 MFI; in test [11], 17800 MFI; in test [13], 15100 MFI; in test [14], 16800 MFI; in test [15], 15900 MFI; in test [16] it was 19600 MFI. In addition, in [17], the binding signal (MFI) was 18100 MFI. In test [2], this substance registered an ADCC (Activity (%)) of 21.5%. The same substance yielded an ADCC Mean RLU in test [2] of 10200 RLU.
